Experimental data taken from patent US20220177576A1 (DENALI THERAPEUTICS, published 2022).

Biological target: T1, human TREM2 expressed on HEK293-H6 cells (human, UniProt Q9NZC2 19-230)
T1 construct: Wild type human TREM2 stably co-expressed with DAP12 in HEK 293 cells (clone HEK293-H6); also called Human TREM2 HEK; TREM2 expressed by HEK293-H6 cells
T1 sequence: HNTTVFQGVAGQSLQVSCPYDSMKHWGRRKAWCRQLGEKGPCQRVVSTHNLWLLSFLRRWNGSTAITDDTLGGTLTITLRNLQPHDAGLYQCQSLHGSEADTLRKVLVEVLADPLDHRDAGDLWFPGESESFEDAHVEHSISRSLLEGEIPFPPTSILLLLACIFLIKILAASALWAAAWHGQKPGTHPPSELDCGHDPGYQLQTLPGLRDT
Assay: flow cytometry, dose titration on HEK 293 cells expressing human TREM2 (TREM2-expressing HEK)
Procedure: After incubation, the cells were centrifuged and washed in FACS buffer (PBS+0.5% BSA) twice. Mixed cells were resuspended in FACS buffer with human Trustain FcX solution (Biolegend, Catalog No. 422302) at a density of 10⁶/mL per cell line. The mixed cell lines were seeded at 200,000 cells per well in a 96-well round-bottom plate and incubated for 20 minutes at room temperature. After incubation, the cells were centrifuged and incubated with a dose titration of anti-TREM2 antibodies for 45 minutes on ice. After incubation, the cells were centrifuged and washed with FACS buffer three times. The cells were then incubated with secondary antibody (Alexa Fluor 647 AffiniPure F(ab′)2 Fragment Goat Anti-human IgG(H+L), Jackson ImmunoResearch Laboratories, Catalog No. 109-606-088, 1:800 dilution) for 30 minutes on ice. After incubation, the cells were washed with FACS buffer three times, resuspended in 100 μL of FACS buffer, and analyzed by flow cytometry (BD FACSCanto II, San Jose, Calif.), for which 30,000 events were obtained for each sample. Mean fluorescence intensity per cells were calculated by FlowJo software and used for generating dose response binding curve.

B1: TREM2 Ab (antibody, human IgG1, kappa, L234A L235A, V domains shown)
VH: EVQLVESGGGLVQPGGSLRLSCAASGFTFTDFYMSWVRQAPGKGLEWVSVIRNKANAYTAGYNPSVKGRFTISRDNSKNTLYLQMNSLRAEDTAVYYCARLTYGFDYWGQGTLVTVSS
VL: DIVMTQTPLSLPVTPGEPASISCQSSKSLLHSTGKTYLNWYLQKPGQSPQLLIYWMSTRASGVPDRFSGSGSGTDFTLKISRVEAEDVGVYYCQQFLEYPFTFGQGTKVEIKR
notes: also called corresponding anti-TREM2 antibody; TREM2 IgG
EC50 (read off the curve): ~0.4 nM
